Measured values reported in publication PMC2597375 (Nature structural & molecular biology, 2008).
Numbering of substitutions follows the chain as printed. In names and notes the source's numbering stands. Where no end group is shown, it is not given here. [ ]: non-standard residue; d: D form. pS = N[C@@H](COP(=O)(O)O)C(=O)O

B1: Nrd1_(6–151) K21P (domain or fragment)
chain: DFQNFVATLESFKDLPSGISGSRIKKLTTYALDHIDIESKIISLIIDYSRLCPDSHKLGSLYIIDSIGRAYLDETRSNSNSSSNKPGTCAHAINTLGEVIQELLSDAIAKSNQDHKEKIRMLLDIWDRSGLFQKSYLNAIRSKCFA
B2: Nrd1_(6–151) K21D (domain or fragment)
chain: B1 chain with P16D
B3: Nrd1_(6–151) D70R (domain or fragment)
chain: B1 chain with P16K, D65R
B4: Nrd1_(6–151) S22D (domain or fragment)
chain: B1 chain with P16K, S17D
B5: Nrd1_(6–151) I130R (domain or fragment)
chain: B1 chain with P16K, I125R
B6: Nrd1Δ6–150 (protein)
chain: MQQDDAMDISNNTANTASQQLSLDPKQRSKQILSNLKKSPPLNLNISLPTDLTSTDPAKQQAALFQVIAALQKHFKTLPSHTSVGTVAPPQAHTITEYGSRRERERERERYNSRRNRSRSPPAPFSQPSTGRKDRYPSVAQDQYSIGAPNTTFGTNNHHLYPDELNVSNNPHYRPKPVSYDSTLPPDHIKVYSRTLFIGGVPLNMKEWDLANVLKPFAEVQSVILNNSRKHAFVKVYSRHEAENVLQNFNKDGALPLRTRWGVGFGPRDCCDYQHGYSIIPMHRLTDADKKWSVSAQWGGTSGQPLVTGIVFEEPDIIVGEGVSSKAISQKMPTDSGRNGPRSGKPNKSGSISSISPVPYGNAPLASPPPQQYVQPMMQQPYGYAPNQPLPSQGPAAAAPPVPQQQFDPTAQLNSLMNMLNQQQQQQQQS
modifications: left off: TAP (with Protein A module), end not stated, kept
B7: Nrd1Δ151–214 (protein)
chain: MQQDDDFQNFVATLESFKDLKSGISGSRIKKLTTYALDHIDIESKIISLIIDYSRLCPDSHKLGSLYIIDSIGRAYLDETRSNSNSSSNKPGTCAHAINTLGEVIQELLSDAIAKSNQDHKEKIRMLLDIWDRSGLFQKSYLNAIRSKCFALQKHFKTLPSHTSVGTVAPPQAHTITEYGSRRERERERERYNSRRNRSRSPPAPFSQPSTGRKDRYPSVAQDQYSIGAPNTTFGTNNHHLYPDELNVSNNPHYRPKPVSYDSTLPPDHIKVYSRTLFIGGVPLNMKEWDLANVLKPFAEVQSVILNNSRKHAFVKVYSRHEAENVLQNFNKDGALPLRTRWGVGFGPRDCCDYQHGYSIIPMHRLTDADKKWSVSAQWGGTSGQPLVTGIVFEEPDIIVGEGVSSKAISQKMPTDSGRNGPRSGKPNKSGSISSISPVPYGNAPLASPPPQQYVQPMMQQPYGYAPNQPLPSQGPAAAAPPVPQQQFDPTAQLNSLMNMLNQQQQQQQQS
modifications: left off: TAP (with Protein A module), end not stated, kept
B8: Nrd1_307–560: containing only the RNA binding region and the C-terminal region (protein)
chain: PDELNVSNNPHYRPKPVSYDSTLPPDHIKVYSRTLFIGGVPLNMKEWDLANVLKPFAEVQSVILNNSRKHAFVKVYSRHEAENVLQNFNKDGALPLRTRWGVGFGPRDCCDYQHGYSIIPMHRLTDADKKWSVSAQWGGTSGQPLVTGIVFEEPDIIVGEGVSSKAISQKMPTDSGRNGPRSGKPNKSGSISSISPVPYGNAPLASPPPQQYVQPMMQQPYGYAPNQPLPSQGPAAAAPPVPQQQFDPTAQLNS

Columns and labels:
[1] = target: unlabeled double-repeat CTD-Ser2P/Ser5P peptide (S. cerevisiae); test: fluorescence polarisation
[2] = target: unlabeled double-repeat CTD-Ser5P peptide (S. cerevisiae); test: fluorescence polarisation
[3] = target: T1, Nrd1_(6–224) (S. cerevisiae, UniProt P53617 6-224); test: ITC
T1 sequence: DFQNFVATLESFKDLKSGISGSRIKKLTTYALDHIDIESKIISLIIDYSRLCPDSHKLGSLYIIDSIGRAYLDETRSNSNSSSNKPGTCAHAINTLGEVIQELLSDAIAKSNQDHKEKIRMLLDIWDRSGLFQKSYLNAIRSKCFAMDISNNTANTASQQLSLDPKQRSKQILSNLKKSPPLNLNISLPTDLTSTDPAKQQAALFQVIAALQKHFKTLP

[4] = tested on: Pol II; format: binding, S. cerevisiae; conditions: whole-cell extracts, IgG purification, anti-CTD Ser5P (H14) immunoblot
[5] = tested on: CTD; test: CTD binding of Nrd1 variants; conditions: point mutants: fluorescence anisotropy, Table 1; deletions: data not shown
[6] = target: T2, Nrd1_(6–151) K21D (S. cerevisiae, UniProt P53617 6-151, K21D); test: fluorescence polarisation
T2 sequence: B1 chain with P16D

[7] = target: T3, Nrd1_(6–151) S22D (S. cerevisiae, UniProt P53617 6-151, S22D); test: fluorescence polarisation
T3 sequence: B1 chain with P16K, S17D

[8] = target: T4, Nrd1_(6–151) I130R (S. cerevisiae, UniProt P53617 6-151, I130R); test: fluorescence polarisation
T4 sequence: B1 chain with P16K, I125R

[9] = target: T5, Nrd1_(6–151) wild-type (S. cerevisiae, UniProt P53617 6-151); test: fluorescence polarisation
T5 sequence: B1 chain with P16K

[10] = target: T6, Nrd1_(6–151) L20D (S. cerevisiae, UniProt P53617 6-151, L20D); test: fluorescence polarisation
T6 sequence: B1 chain with L15D, P16K

[11] = target: T7, Nrd1_(6–151) K21P (S. cerevisiae, UniProt P53617 6-151, K21P); test: fluorescence polarisation
T7 sequence: B1 chain

Row | Molecule | Kd [1] | Kd [2] | also measured
1 | Nrd1_(6–151) L20D (from UniProt P53617 6-151) (domain or fragment) | 19 µM | – | –
2 | Nrd1_(6–151) wild-type (from UniProt P53617 6-151) (domain or fragment) | 16 µM | 40 µM | –
3 | Nrd1_(6–214) wild-type (from UniProt P53617 6-214) (domain or fragment) | – | 48 µM | –
4 | ENVNYDLLQKQVKYIMDSNMLNLPQFQHLPQEEKMSAILAMLNSN (domain or fragment) [Nab3_(204–248)] | – | – | Kd [3]: 0.16 µM; stoichiometry N [3]: 1
5 | B1 | 48 µM | 70 µM | –
6 | B2 | 70 µM | 95 µM | –
7 | B3 | 100 µM | 680 µM | –
8 | B4 | 100 µM | 140 µM | –
9 | B5 | 27 µM | 215 µM | –
10 | B6 | – | – | Association with Pol II [4]: greatly reduced association with Pol II
11 | B7 | – | – | Association with Pol II [4]: greatly reduced association with Pol II
12 | B8 | – | – | CTD binding of Nrd1 variant [5]: no CTD binding
13 | Y[pS]PTSPSY[pS]PTSPS [unlabeled double-repeat CTD-Ser2P peptide] | – | – | Kd [6]: 610 µM; Kd [7]: 470 µM; Kd [8]: 550 µM; Kd [9]: 390 µM; Kd [10]: 560 µM; Kd [11]: 380 µM
